Measurements: US20100285988A1
Values belong to the substance of their own block, whether it stands above or below them.

Experiments:
[1] = biological target: γ-secretase (human; HeLa cell membrane / solubilized HeLa membrane; endogenous in HEK293 cells) (human) (UniProt P49768); assay: cell-based or functional assay
[2] = biological target: γ-secretase (mouse; mouse brain membrane, N2A neuroblastoma cells) (mouse); assay: cell-based or functional assay

reaction rate of γ-secretase (Aβ40 production in vitro) relative to WT βCTF [1]: 3 fold
Substance: recombinant βCTF with the Flemish mutation (A21G) (from UniProt P05067 672-770)

inhibition of X40 production, αCTF at 0.25 µM [1]: 24% | inhibition of X40 production, αCTF at 0.5 µM [1]: 32% | inhibition of X40 production, αCTF at 1.0 µM [1]: 60% | suppression of γ-secretase activity for Aβ production from 1 µM βCTF, αCTF at 0.25 µM [1]: 66% | suppression of γ-secretase activity for Aβ production from 1 µM βCTF, αCTF at 0.5 µM [1]: 71% | suppression of γ-secretase activity for Aβ production from 1 µM βCTF, αCTF at 1.0 µM [1]: 82%
Substance: αCTF-FLAG (recombinant α-secretase cleaved APP C-terminal fragment) (from UniProt P05067 688-770)

rate of γ-secretase activity for Aβ38 production relative to βCTF (HeLa membrane) [1]: < 10 fold | secreted Aβ40 from transfected HEK293T cells relative to SPβCTF (ECL) [1]: 10 fold | reaction rate of γ-secretase, 40-site production, relative to βCTF (mouse brain membrane) [2]: 25 fold | reaction rate of γ-secretase, 42-site production, relative to βCTF (mouse brain membrane) [2]: 11 fold
Substance: βCTFΔ (Aβ17-23 deleted form of βCTF)
